Assay results: the DeepSol protein solubility set

Test: soluble on expression in E. coli; label from the status in PepcDB or PDB records

| Sequence | soluble on expression in E. coli |
| --- | --- |
| MAMKIPKSGYNRFMKEGAQHFKGTDEAVQRNIEACTELASQIRSAYGPNGMNKMVINHIEKLFVTNDAATILKELEIQHPAARIIIMATEMQEKQIGDNTNTVVILAAALLEHAANLIHMGMTPQEVAAGYEQAAEKALEILPTLVVKEATDMKNIEEVRQYIRSAITSKQYDNEDIIADLVAKACVTTCPANSFNFNVDNIRICKIIGSGVHTSTVMNGMVFKRGAEGEIREARDARIAVYTCPFDLTQTETKGTVLIENADELRNFSKGEEAEVEEQVKAIADNARSSILAKFWLMNFSKGEEAEVEEQQVKAIADNGVKVVVAAGKFGDMYLHFLNKYKIMAVRLTSKFDLRRLCRTVGAQPQARICAPAVNLLGHCDSVAVQEIGDENVVVFDKKSETGKVATIIIRGSSQSRIDDVERAVDDAVNTYKALTKDGKLLAGAGAVEIELAKEIESFGAKAPGLEQYAIKKFAHALETLPKAIAENAGMPTTETLTKLYAEHVAGKKNAGIDIWKRETMDAVVNNIFDLYAGKRLAIKLATDAASTILKVDQIIMSKQATGGPKPRGPKAQDEDDDGMA | not soluble |
| MAMKQWIAALLLMLIPGVQAAKPQKVTLMVDDVPVAQVLQALAEQEKLNLVVSPDVSGTVSLHLTDVPWKQALQTVVKSAGLITRQEGNILSVHSIAWQNDNIARQEAEQARAQANLPLENRSITLQYADAGELAKAGEKLLSAKGSMTVDKRTNRLLLRDNKTALSALEQWVAQMDLPVGQVELSAHIVTINEKSLRELGVKWTLADAQHAGGVGQVTTLGSDLSVATATTHVGFNIGRINGRLLDLELSALEQKQQLDIIASPRLLASHLQPASIKQESEIPYQVSSGESGATSVEFKEAVLGMEVTPTVLQKGRIRLKLHISQNVPGQVLQQADGEVLAIDKQEIETQVEVKSGETLALGGIFTRKNKSGQDSVPLLGDIPWFGQLFRHDGKEDERRELVVFITPRLVSSELEHHHHHH | soluble |
| MANAIRLPPEAYPMSIAAQKNDDDRQARALAALAEKPDGIVEAIAAKAEVAPAEILAILPQGAAVSAPADRFDAIWNEMRGWGEILMIVQTGDIVLEVPGHLPEGTESHGWFNIHGDSPIGGHIKKDNCAAITFVDRGFHGRRSCSVWFMNAAGGAMFKIFVRRDENKELLAGQLAKFEELRDGFRGLEHHHHHH | soluble |
| MANLCKRVVDLEKYIVKEAPPTVYYIPDFISEAEEEFLLQQVYRAPKPKWTQLSGRRLQNWGGLPNPKGMLAEKLPDWLLEYTEKISALGAFAGKTANHVLVNEYKPGEGIMPHEDGPLYHPTVTTITVGSHTLLDFYRPVCQAEPDAPQTEESRYMLSLLVQRKSLLILQDDMYKCYLHGIRGVCEDVLSEHVVNISSTGAQVGDTLPRSTRVSLTIRHVPKIIRANLFLGKK | not soluble |
| MANSLAIIADPKTGKTYKREIPSERMSSLIGRKIGEEVDGVFFDLVGYKMKITGGSSVDGFAMRPDLQTQGKKQILVKYTSGYRGKNGIRKRITARGSIIGSDITQINLKITQYGPTLEHHHHHH | not soluble |
| MAPILSHSIPIPSSMQANWQQMLNLLAEVLKVSATLIMRLRHHDLDVFCTSVGSDNPYQVGMTERLGTGLYCETVVNTRQILLVSNADLDPLWKDNPDLELGMRAYCGVPLQWPNGELFGSLCVTDRQARQFLSTDQQLIKTFAESIEAQLKTLYQRETLLQMNQ | not soluble |
| MAPKTIFITGANRGIGLGLVRELLKVPGVEALVAGARNIDGAKELQSLAKADARLHLIAVDVSNDGSLENSVKSVSGIVGDRGLNLLINNAGLIESYGTTSAPNRASVLHCIDVNAVSALLASQHFLPLLQKAASHVSGDSLTPDRAAIVNIGSDCASQALNLRGSGPSNSLLAYKMSKVAMLSFSRSMAADFKRLEIPVLITNIHPGWVQTDMGGSNAEISVDESVTKIVASIAKLNGGHQGGLFNRELEEMPL | not soluble |
| MAPPKDPPVLRNLQATADLLDALQNDPSLLNDEEFIKRLSILRQKHEETTNFLAKKLGAPPLPTMMTSSEITQHRSSYKVTKSSSCHFQDEASPSDYQMPRHLDLKPRSSEVRVPVRAAPEPPREQSWSQTEYATLAHNQSHEALYEDPRHQVHATSSHQNPRHQSSRHHNIESTAPSQVSVTSSVQSVAALSGQNPRQQVHATPSHQIPRHQSSRTHQNSRQQVPSATSSTLQNPRHRTSSASRHHSTRNATSATVRQILANASTRHLSSAPHIATSVAMPSGLLLSSSNTKHVASSKSENPQFATSSHVVEESFLEDGMSTTREVPTIRDEVVAGDLKLSKNRSKSMHQLSKYTPQVTVPKPFQLSLRKSTGNTYAKKFMSGLITEKQKLEEDAKKALENTKFRAKPVPKSTYQPTNTFATEQKYVEAMRKKVAAKARRKFEVQNEMVRSKSEGNLASIKPLGYVPPSTYISPIPVKPNARSRSATMRATILIQEATTPKGIKSHRAQSNLTHHLRHGRCTMDASAVSLHRRTSPPDFEKIHAKITDNFRNTNSKPSTVPIPFKFASRSKSATSRHGNCQEQAPKPFKKSTENLPKTSKNRVPSTHATQLREELNRAKIELKKSEKSGKNGNFWAEDNKQRISSFLGARSKTEEDIAMRTKQKLQQQQETTQEYMRQLAEMKQRVLNGPLIMEKQTALAQEHRLKRKFEERMKSAKGRGIERVQSQEKQQSIGRRSSEVSGSGTFVVDKGYEESFESEDKSEKSGSSTPSESGSGSESENESRSSRSSKPKSSKSTSSKSSSSRSTSSSSEA | not soluble |
| MAPRKRSHHGLGFLCCFGGSDIPEINLRDNHPLQFMEFSSPISNAEELNIRFAELVDELDLTDKNREAMFALPPEKKWQIYCSKKKVPSLTPLATSQGSWHGVALAALACSCIHLMFITCQPCSRCWRNNSE | soluble |
| MAQNNENALPDITKSITLEAPIQKVWETVSTSEGIAKWFMPNDFQLKEGQEFHLQSPFGPSPCKVLAVQAPTELSFEWDTEGWVVTFQLEDLGEKTGFTLIHSGWKEPNEVIGKANEKSSVVRGKMDGGWTGIVNERLRKAVEE | not soluble |
| MAQPQLYLPEPFKIAYRKVGQCRRFQQLKKKNGSFKRKGIERWHRAVSTNLLKQNVLVPKEESSSDSDMGFHESQQNQKSNLKTKVKTAFGRMLSYKYRSKPACASQEGSTDHKEALLSNTQSLLPRIVKEFSSPKLFTAKMRKLSENATIQLDVVEAETEEITQGNTLLRARRTTKRLSVTSLPSGLQKGPYSPKKRPHFPALKKKKRGMENILRKSDLTVGKLQMQVDDLIETVTDKSMKLLAQRHAELQQCEFLGDEILQSSKQFQRISKRTMRKYKLKNMTTKGPGDS | soluble |
| MARESVKILQGKLDVESLISQLNAALSEEWLAYYQYWVGALVVEGAMRADVQGEFEEHAEEERRHAQLLADRIIELEGVPVLDPKKWFELARCKYDAPQGFDSVSLLKDNVASERCAILRYQEIADFTNGKDFTTCDIAKHILAEEEEHEQDLQDYLTDIARMKKSFLDK | not soluble |
| MARFLLIIGCATLAALASCESKSGEETPQYWRAILGDICQLPSFPRATGDPTRYVECVRQSSFAADRKDLGIWLLRECLPGYEFVASARRCKTVRSVNKQQELCESANATEYNFCPTASAMQFLVEETREAPRQCACPNGEQNCVCPSPEILEPISAVKKVRRSAQQQPLRFSQYPSCPCPQNQPACTCSTNNQQNEQILVSISCCQQQETTTQAPVQMQPCQCTPTQIQQNCQTTTTQQQYCPQQSAPVVQPQPCPLVQGSGVQNAQYQGICSWMIDPLATDPQSRTHYLQCQPAPNNLFCGRWQRMPCAPGTVFDVQSQVCVWDTNSQPGTLPTPAPYVSTQAPQNAQCGCTGGVQIGSCNQNYQCPGQSVCQVGQNAGQQCMVCCYFRKKARRF | not soluble |
| MARKTTVAKVGSKGPGSTKKTIQAVRPTVRTQGAVTRSQAALRGHMGITDSSTSTSSSRIPKEKLKKKASSRSRSRSRSKSTRRSRSKSTRSRSRSRSRSRSSTRGKKRAPKKAVTTKAARSISPVKVKKTEAIKSRGSSKTARRVSAAHK | not soluble |
| MARVLVVDDAAFMRMLLKKILTQAGHEVVGEASNGKEAVEKYKQLKPDLVTMDIVMPEMDGITAVKEIMKIDPNAKIIMITAVGQEAKVMEALKSGAKGYIVKPFQAQKVIEEVNRVLSS | soluble |
| MARYSLHAGHNSIVQGANYGNRKEHIMDRQVKDAVVAKLRALGHTVYDDTDEVGTTQAQNLNNIVSKTNSHDVDLVVSFHLNSYDTRANGVEVLYYDQQALSAKIAAQLSKDIGWSNRGAKERKDLYVLSNTKAPAILIELGFIDNEADMAKWNPDKIANSIVYALTGQSGGTTPPSKQNIIQSGAFSPYETPDVMGALTSLKMTANFILQSDGLTYFISEPTSDAQLKGMTDYLDRRGWWYEVK | not soluble |
